Experimental findings from paper PMC6145145 are described below.

One series addresses T1, POT1-K90E (human, UniProt Q9NUX5 1-634, K90E).
T1 sequence: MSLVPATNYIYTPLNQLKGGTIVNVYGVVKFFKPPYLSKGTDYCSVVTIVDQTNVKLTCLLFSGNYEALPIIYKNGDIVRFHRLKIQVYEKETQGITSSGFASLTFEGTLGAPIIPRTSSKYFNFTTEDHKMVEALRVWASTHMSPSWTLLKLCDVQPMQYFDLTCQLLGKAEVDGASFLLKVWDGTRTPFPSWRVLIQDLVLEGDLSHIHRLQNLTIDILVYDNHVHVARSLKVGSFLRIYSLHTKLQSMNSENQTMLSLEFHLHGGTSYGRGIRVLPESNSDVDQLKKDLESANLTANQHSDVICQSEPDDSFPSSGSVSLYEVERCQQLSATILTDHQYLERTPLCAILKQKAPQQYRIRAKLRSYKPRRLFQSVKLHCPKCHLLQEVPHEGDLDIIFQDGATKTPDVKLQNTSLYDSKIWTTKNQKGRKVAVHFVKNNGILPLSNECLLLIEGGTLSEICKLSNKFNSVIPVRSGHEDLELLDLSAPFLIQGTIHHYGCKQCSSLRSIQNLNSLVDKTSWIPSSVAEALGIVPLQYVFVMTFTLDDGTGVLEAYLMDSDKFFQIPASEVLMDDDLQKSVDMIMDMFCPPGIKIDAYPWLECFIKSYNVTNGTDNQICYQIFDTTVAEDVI
Put plainly: EMSA. On the technique in general: In EMSA bound probe runs differently from free probe, usually more slowly.

In the next series the target is T2, POT1 WT (human, UniProt Q9NUX5 1-634).
T2 sequence: T1 sequence with E90K
The series is described as follows: EMSA.

Numbering of substitutions follows the chain as printed.

As to TTAGGGTTAGGGTTAGGG (ssDNA) [telomeric primer (TTAGGG)3], the binding result with POT1-K90E and with POT1 WT was “binds” each time.
